Residue numbers refer to the chain shown, from its start.
How the values were obtained:
[1] = system: nNOS/PSD95 interaction; assay: Competition of His6-fusion proteins for nNOS binding to immobilized GST-PSD95; set-up: competition for / block of nNOS-PSD95 interaction: dose or concentration left out as unconfirmed; details: for block of nNOS/PSD95 interaction in vitro: no concentration stated
Experimental: (§1) The C-terminal 100 amino acids were fused to a His6 tag and added to HEK293 lysates transfected with nNOS expression plasmids at the indicated fusion protein concentration. This mixture was added to GST-PSD95 (amino acids 20-364) or GST-PSD93 (116-421), the regions of these proteins previously shown to interact with nNOS (Brenrman et al., 1996).
(FIG. 5B) Quantification of CAPON inhibition of the nNOS/PSD95 interaction. HEK293 cells were transfected with nNOS expression plasmids and then metabolically labeled with [^35 S] methionine. Radiolabeled nNOS was purified and mixed with His6 -CAPON as in (A), above. Bound nNOS was resolved by electrophoresis and counts were determined on a Phospholmager.
Transfections were performed with 10 μg of each plasmid using the calcium phosphate method. Following transfection, cells were sonicated in buffer A [50 mM Tris-HCl (pH 7.7), 100 mM NaCl, 2 mM EDTA, and 1% Triton X-100] and cleared by centrifugation. This cellular lysate was incubated with GST-fusion protein immobilized on glutathione-agarose for one hour at 4° C. and washed extensively in HNTG buffer [20 mM Hepes (pH 7.4), 500 mM NaCl, 10% glycerol, and 0.1% Triton X-100] five times, for ten minutes per wash at room temperature. A GST-CAPON fusion protein consisting of amino acids 379-503 was used for binding assays because it was more soluble when expressed in bacteria than larger CAPON fusion proteins.
For quantitative binding experiments, transfected cells were metabolically labeled overnight with […] [^35 S] methionine and nNOS was purified by NADPH elution of 2', 5' ADP ribose as described previously (Bredt and Snyder, 1990).
Since the nNOS PDZ domain is capable of both PDZ-PDZ interactions and PDZ-C-terminal peptide interactions we wondered whether CAPON and PSD95 can bind simultaneously to nNOS or whether their interactions with nNOS are mutually exclusive. To answer this question we incubated lysates of HEK-293 cells containing nNOS with various concentrations of a His6 -CAPON fusion protein, comprising the last 125 amino acids of CAPON, and then added these lysates to GST-PSD95 immobilized on glutathione agarose resin (FIG. 5A). After extensive washing of the resin, we assayed for nNOS bound to PSD95 by Western blot. […] Half maximal reduction of binding is evident between 5 and 50 nM His6 -CAPON (FIG. 5B). […] As controls, we examined the effects of 5 μM His6 -PIN or […] His6 -FK506 binding protein-12 kD (FKBP). […] These effects of CAPON likely reflect its binding to nNOS rather than to the PDZ domains of either PSD95 or PSD93 because CAPON fails to interact with either PSD93 or PSD95 using (i) a two-hybrid assay (see FIG. 1A) and (ii) in vitro experiments utilizing immobilized GST-PSD95 and purified recombinant CAPON (data not shown).

[2] = system: nNOS/PSD95 interaction; assay: Coimmunoprecipitation of myc-PSD95 with HA-nNOS in transfected HEK293 cells; assay type: cell-based; details: cotransfection of full-length CAPON expression plasmid
Description: FIG. 6. CAPON expression prevents the interaction of PSD95 and nNOS. HEK293 cells were transfected with various combinations of expression plasmids for HA-tagged nNOS (HA-NOS), myc-tagged PSD95, or CAPON. Following transfection, the lysates were immunoprecipitated with an anti-HA antibody and bound proteins were detected with the appropriate antibodies. Following cotransfection of HA-NOS and myc-PSD95, myc-PSD95 is detected in anti-HA immunoprecipitates. […] In the absence of HA-nNOS transfection, neither myc-PSD95 or CAPON is immunoprecipitated by anti-HA antibodies.
We wanted to determine if CAPON and PSD95 compete for binding to nNOS in intact cells. Accordingly, we transfected HEK-293 cells with various mixtures of expression plasmids containing cDNAs of hemagglutinin antigen (HA)-tagged nNOS, myc-tagged PSD95 and/or full-length CAPON. Following immunoprecipitation with antibodies to HA, we examined which proteins coprecipitated. In cells expressing HA-nNOS and myc-PSD95, antibodies to HA coprecipitate myc-PSD95 (FIG. 6). When various amounts of CAPON cDNA containing expression plasmids are also transfected, HA-immunoprecipitatescontain CAPON but substantially less PSD95.

[3] = target: T1, nNOS (Rattus norvegicus, UniProt P29476); assay: nNOS catalytic activity; assay type: biochemical; details: data not shown
[4] = target: T1, nNOS; assay: CAPON C-terminal peptides as competitors for nNOS binding; set-up: expressed in transfected cells; host or cells: HEK293
[5] = target: nNOS expressed in transfected HEK293 cells (lysate; also metabolically labelled and purified); assay: competition: nNOS (HEK-293) binding to immobilized GST-PSD95 in the presence of His6-CAPON
[6] = target: nNOS (purified nNOS standard; preparation and species not stated); assay: peptide competition; format not described
[7] = target: T2, nNOS construct comprising amino acids 163-245 (PIN-binding domain of nNOS), Gal4 BD fusion (rat); assay: yeast two-hybrid with truncations of nNOS
T2 chain: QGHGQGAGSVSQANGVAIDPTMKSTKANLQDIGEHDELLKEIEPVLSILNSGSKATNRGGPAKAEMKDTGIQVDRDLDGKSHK

[8] = system: nNOS/PSD93 interaction; assay: Competition for nNOS binding to immobilized GST-PSD93
Experimental: as §1
Since the nNOS PDZ domain is capable of both PDZ-PDZ interactions and PDZ-C-terminal peptide interactions we wondered whether CAPON and PSD95 can bind simultaneously to nNOS or whether their interactions with nNOS are mutually exclusive. To answer this question we incubated lysates of HEK-293 cells containing nNOS with various concentrations of a His6 -CAPON fusion protein, comprising the last 125 amino acids of CAPON, and then added these lysates to GST-PSD95 immobilized on glutathione agarose resin (FIG. 5A). After extensive washing of the resin, we assayed for nNOS bound to PSD95 by Western blot. […] Half maximal reduction of binding is evident between 5 and 50 nM His6 -CAPON (FIG. 5B). […] As controls, we examined the effects of 5 μM His6 -PIN or […] His6 -FK506 binding protein-12 kD (FKBP). […]

[9] = system: nNOS PDZ domain; assay: Binding of mutagenized His6-CAPON fusion proteins to immobilized GST-NOS (1-100); details: His6-fusion of last 100 amino acids of CAPON, last four amino acids given
Experimental: His6 -fusion proteins of the last 100 amino acids of CAPON were generated and incubated with GST-NOS (1-100) immobilized on glutathione agarose.
Recently Cantley and associates (Songyang et al., 1997) identified consensus sequences for binding to several PDZ domains. Binding of PDZ ligands involves the C-terminus of proteins, with determinants of specificity lying within the eight or fewer C-terminal amino acids. A consistent requirement among all the PDZ domain ligands is a hydrophobic residue, such as valine or leucine, as the final amino acid.

Molecule: His6 -FKBP: His6-tagged FK506 binding protein-12 kD, control protein [reference compound]
- competition for / block of nNOS-PSD95 interaction [1]: Neither of these proteins compete
- block of nNOS/PSD95 interaction in vitro [1]: do not disrupt

Molecule: CAPON: Carboxyl-terminal PDZ ligand of nNOS, 503 amino acid rat cytoplasmic protein
- amount of myc-PSD95 in anti-HA precipitates [2]: substantially reduces
- direct inhibition of nNOS catalytic activity [3]: does not inhibit

Molecule: 16-residue peptides: 16-residue peptides of the CAPON C-terminus (LQRQELGDSLDDEIAV; UniProt O54960 488-503, looked up, fragment)
- IC50 ([4]; read-out: IC50 as competitor): 10 µM

Molecule: His6-CAPON fusion protein comprising the last 125 amino acids of CAPON
- IC50 [5]: 5 to 50 nM

Molecule: peptides comprising the C-terminal nine residues of CAPON: short, presumably unfolded, peptides comprising the C-terminal nine residues of CAPON (DSLDDEIAV)
- binding to nNOS [4]: bind nNOS weakly

Molecule: LQRQELGDSLDDEIAV [16-residue peptides of CAPON]
- IC50 [6]: 10 mM

B1: pAD-CAPON1 (Gal4 activation domain fused to the last 125 amino acids of CAPON) (other)
chain: SGALPVLCESTTPKPEDLHSPLLGAGLADFAHPVGSPLGRRDCLVKLECFRFLPAEDNQPMAQGEPLLGGLELIKFRESGIASEYESNTDESEERDSWSQEELPRLLNVLQRQELGDSLDDEIAV
- binding result [7]: no binding

B2: His6 -CAPON: His6-tagged fusion protein of the C-terminal 100 or 125 amino acids of CAPON (protein)
chain: B1 chain
- competition for nNOS binding to immobilized GST-PSD93 [8]: effective competitor
- binding to GST-NOS (1-100) [9]: binds
- reduction of nNOS binding to GST-PSD95 ([1]; 5 nM fusion protein): substantial reduction
- block of nNOS/PSD95 interaction in vitro [1]: specifically block
- effective concentration range as competitor ([1]; see FIG. 5): active in the nanomolar range

B3: DC20: His6-CAPON fusion protein with the C-terminal 20 amino acids deleted (protein)
chain: SGALPVLCESTTPKPEDLHSPLLGAGLADFAHPVGSPLGRRDCLVKLECFRFLPAEDNQPMAQGEPLLGGLELIKFRESGIASEYESNTDESEERDSWSQEELPR
- competition for / block of nNOS-PSD95 interaction [1]: fails to block the interaction
- block of nNOS/PSD95 interaction in vitro [1]: abolishes its ability to serve as a competitor

B4: EIAA: His6-CAPON (last 100 amino acids), terminal valine mutated to alanine (protein)
chain: GLADFAHPVGSPLGRRDCLVKLECFRFLPAEDNQPMAQGEPLLGGLELIKFRESGIASEYESNTDESEERDSWSQEELPRLLNVLQRQELGDSLDDEIAA
- binding to GST-NOS (1-100) [9]: prevents binding

B5: ESAV: His6-CAPON (last 100 amino acids), n-2 isoleucine mutated to serine (protein)
chain: B4 chain with I98S, A100V
- binding to GST-NOS (1-100) [9]: tolerated

B6: EAAV: His6-CAPON (last 100 amino acids), n-2 isoleucine mutated to alanine (protein)
chain: B4 chain with I98A, A100V
- binding to GST-NOS (1-100) [9]: tolerated
